Legend:
Test in all cases: BLI
2B12 Fab = conditions: 2 uM Fab; RT; weak binder; printed as second 3B12 in Table 4, 2B12 in text
2C11 Fab = conditions: 2 uM Fab; RT; weak binder
3B11 Fab = conditions: 2 uM Fab; RT; described as weak binding
3B12 Fab = conditions: 2 uM Fab; RT; described as weak binding
3C8 Fab = conditions: 2 uM Fab; RT; described as weak binding

CATTTCCCGTAAATC (double strand) [CS3D (cyclic STAT3 decoy)]
koff (2B12 Fab): 0.37 s⁻¹
koff (2C11 Fab): 0.419 s⁻¹
koff (3B11 Fab): 0.205 s⁻¹
koff (3B12 Fab): 0.0764 s⁻¹
koff (3C8 Fab): 0.277 s⁻¹

— patent US20260234290
